B2: Saccharolobus solfataricus ribosomal protein aS34 (natural protein, UniProt Q97ZK4 1-72, looked up)
chain: MSIKNRGSNAYGHLGWLTVYCRICNRKLIIGTDILYKCPKCEKKYSAYFCEADKRGLKGKCPYCGTELVPIL

Common to all, as to experiment: cryo-EM structure
For test [1], the target named is B2.
Test [2] deals with T1, Saccharolobus solfataricus ribosomal protein uS3 (S. solfataricus (endogenous in the …, UniProt Q9UXA0 1-229)).
T1 sequence (looked up): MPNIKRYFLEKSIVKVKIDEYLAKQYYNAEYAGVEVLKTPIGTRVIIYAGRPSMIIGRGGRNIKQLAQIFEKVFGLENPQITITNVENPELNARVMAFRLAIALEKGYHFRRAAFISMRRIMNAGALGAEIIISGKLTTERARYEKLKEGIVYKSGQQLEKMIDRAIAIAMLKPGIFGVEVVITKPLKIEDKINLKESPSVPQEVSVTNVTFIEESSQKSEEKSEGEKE

Test [3] deals with T2, Saccharolobus solfataricus ribosomal protein uS13 (S. solfataricus (endogenous in the …, UniProt P95986 1-165)).
T2 sequence (looked up): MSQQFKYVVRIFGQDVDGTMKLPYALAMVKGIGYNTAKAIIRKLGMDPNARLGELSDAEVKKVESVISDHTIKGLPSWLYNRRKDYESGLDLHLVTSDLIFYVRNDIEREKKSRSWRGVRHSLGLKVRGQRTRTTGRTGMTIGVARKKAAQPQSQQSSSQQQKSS

B1: Saccharolobus solfataricus ribosomal protein uS14 (natural protein, UniProt Q97ZQ5 1-54, looked up)
chain: MGKYKPPAERKYGKGVQSCQRCGSKDSVIQKYGIYLCRQCFREVAYELGFRKYW
B1: the binding result in test [1] is “binds”.
For B2, in test [2], the binding result is “binds”.

B3: Saccharolobus solfataricus ribosomal protein eS25 (natural protein, UniProt Q97ZZ6 1-110, looked up)
chain: MGGASKKPISTMEKRLKKEAEKQQKAEEKKKGPSKTGKEIISRAVTIDEETKKKVLDEIKKESIITPYALATKSGISISVARKILKELENQNVVKLYSKNRRLEIYIAAS
For B3, in test [3], the binding result is “binds”.

These data come from publication doi:10.1101/2024.07.16.603699 (bioRxiv, 2024).
